One assay deals with TGF-β. Nature of the assay: Measurement of TGF-β activity in serum-free culture supernatants of spleen cells. It is filed as cell-based, Lewis rats. The protocol:
Measurement Of TGF-β Activity In Serum-Free Culture Supernatants. Serum free culture supernatants were collected as previously described (Kehri, et al. J. Exp. Med. 163: 1037-1050, 1986; Wahl, et al. J. […] Thereafter cells were washed three times and resuspended in serum-free medium for the remainder of the 72 hour culture, collected, then frozen until assayed. Determination of TGF-β content and isoform type in supernatants was performed using a mink lung epithelial cell line (American Type Culture Collection, Bethesda, Md. #CCL-64) according to Danielpour et al. (supra), and confirmed by a Sandwich Enzyme Linked Immunosorbent Assay (SELISA) assay as previously described (Danielpour et al. Growth Factors 2: 61-71,1989). The percent active TGF-β was determined by assay without prior acid activation of the samples.

The test system of assay [1] is EAE. The experiment in a line: EAE after MBP/CFA immunization with oral tolerization and in vivo anti-TGF-β antiserum. Particulars: orally tolerized animals treated 5 times with 50 μl control serum; score 0-5. Set-up: species or system Lewis rats.
The test system of a further assay is DTH responses to MBP. Nature of the assay: Delayed type hypersensitivity (DTH) testing, Example 1. Particulars: orally tolerized animals injected 5 times with 50 μl control serum; 48 hours after MBP challenge. It is filed as in vivo, Lewis rats. The protocol:
Delayed Type Hypersensitivity (DTH) Testing. DTH was tested by injecting 25 μg of MBP in PBS subcutaneously in the ear. Thickness was measured before and 48 hours after challenge, by a blinded observer, using micrometer calipers (Mitutoyo, Japan). Change in ear thickness pre- and post-challenge was recorded for each animal and the result expressed as the mean for each experimental group ±SEM.
Delayed-type hypersensitivity (DTH) responses correlate with the clinical course of EAE and serve as a measure of in vivo cellular immunity to MBP (Brod, S. A. et al. Ann. Neurol. 29:615-622, 1991; Khoury, S. J. et al. Cell. Immunol. 131:302-310, 1990). DTH responses were tested in the same groups described in FIG. 4 by injecting 25 μg of MBP in PBS subcutaneously in the ear. Thickness was measured before and 48 hours after challenge. The change in ear thickness pre- and post-challenge was recorded for each animal and the results expressed as the mean for each experimental group ± SEM.

Assay [2] relates to DTH responses to MBP or OVA. Nature of the assay: Delayed type hypersensitivity (DTH) testing, Example 2. The note with it: fed antigen, then immunized with MBP/CFA plus OVA; FIG. 7. It is filed as in vivo, Lewis rats. The protocol:
Delayed Type Hypersensitivity (DTH) Testing. DTH was tested by injecting 50 μg of MBP or OVA in PBS, subcutaneously into the ear. MBP was injected in the left ear and OVA in the right ear in the same animal. Thickness, in units of 0.01 inch, was measured in a blinded fashion, before and 48 hours after challenge, using micrometer calipers (Mitutoyo, Utsunomia, Japan). Change in ear thickness before and after challenge was recorded for each animal, and results were expressed as the mean for each experimental group ± SEM; each group consisted of five animals.

For assay [3], the system named is EAE. The experiment in a line: Adoptive transfer of disease suppression. It is filed as in vivo, Lewis rats. Particulars: naive recipients immunized with MBP/CFA and given OVA subcutaneously; FIG. 9. As to the method:
Adoptive Transfer Of Disease Suppression. In order to monitor the adoptive transfer of disease suppression occurring during Bystander Suppression donor rats were fed either 1 mg MBP, OVA, or KLH, five times at 2 day intervals and killed 7-14 days after the final feeding. Spleen cells were harvested, and incubated in vitro with the homologous antigen (50 μg/ml) in proliferation medium, for 72 hours. Cells were injected intraperitoneally: 10^8 cells for whole spleen populations or 5-6×10^7 cells for CD8− or CD4-depleted populations. Recipient animals were irradiated (250 rad) before adoptive transfer, immunized with MBP/CFA 6 hours after adoptive transfer, and challenged 8 hours later with 50 μg OVA.

For assay [4], the system named is Cells, cytokines and activation markers in rat brain. Nature of the assay: Immunohistology of cells, cytokines and activation markers in sections of rat brain. On the set-up: key to IL-4 / TGF-β / PGE: −: absence of labelling; +/−: <10 cells/section or trace labelling; +: few small foci; 2+: multiple foci; 3+: multiple large perivascular collections and diffuse submeningeal staining. It is filed as in vivo, Lewis rats. Particulars: brain sections at day 14 (peak of disease), n = 3/group. The protocol:
The effect of oral administration of MBP in rats induced for EAE was analyzed in terms of the cells and factors present in the brains of fed and control rats. Lewis rats were fed MBP five times then immunized with MBP/CFA and their brains were examined immunohistologically at day 14 (peak of disease) and compared to brains from immunized control-fed animals harvested at the same time, and to brains of naive animals. Cryostat sections of cortex and cerebellum were fixed in paraformaldehyde-lysine-periodate for determination of leukocytes and activation antigens, or in acetone for the labelling of cytokines, and stained by a peroxidase-antiperoxidase method (Hancock, W. W., et al., J. Immunol. 138:164, 1987). Results of cytokine and endothelial labelling in 20 consecutive fields were judged as (−) absence of labelling, (+/−) <10 cells/section or trace labelling, (+) few small foci, (2+) multiple foci, and (3+) multiple large perivascular collections and diffuse submeningeal staining.

The test system of assay [5] is EAE. The experiment in a line: EAE induced by guinea pig MBP 71-90, feeding of MBP peptides. Particulars: fed; FIG. 14. It is filed as in vivo, Lewis rats. The protocol: The effects of feeding various peptides to Lewis rats induced for EAE by guinea pig MBP residue nos. 71-90 (the major immunodominant epitope of guinea pig MBP as shown in Example 3 above) were also studied.
EAE was induced by immunizing with 0.25 mg of guinea pig MBP amino acid residue nos 71-90 in Complete Freund's Adjuvant and the effect of feeding various guinea pig MBP peptides on EAE was examined.

In assay [6] the test system is EAE. Nature of the assay: I.V. tolerization with MBP and MBP peptides in EAE induced with whole guinea pig MBP. Particulars: days 8 and 9 post immunization, FIG. 16. It is filed as in vivo, SJL/J mice. The source says: FIG. 16 is a bar graph showing the effect of intravenous tolerization with MBP and disease inducing and non-inducing fragments thereof on induced EAE expression in SJL/J mice.
Finally, the suppression of EAE by I.V. tolerization with MBP and MBP peptides prior to disease expression (on days 8 and 9 post immunization) was examined.

Where [7] appears, read: spleen cells of MBP-fed animals stimulated with concanavalin-A.

B1: MBP: Guinea pig myelin basic protein purified from brain tissue (protein, UniProt P25188 1-167, looked up)
Myelin basic protein: ASQKRPSQRHGSKYLATASTMDHARHGFLPRHRDTGILDSIGRFFGSDRAAPKRGSGKDSHHAARTTHYGSLPQKSQRSQDENPVVHFFKNIVTPRTPPPSQGKGRGLSLSRFSWGAEGQKPGFGYGGRADYKSKGFKGAHDAQGTLSKIFKLGGRDSRSGSPMARR
Consider B1, for which, in the assay on TGF-β (setting [7]), the “active TGF-β” value is “No active TGF-β was observed” and the “latent TGF-β” value is 2.1 ± 0.45 ng/mL. The “TGF-β in the active form” value in the assay on TGF-β (spleen cells of fed animals stimulated in vitro with the fed antigen) is 68±9%. For the same molecule, in the assay with TGF-β (spleen cells of fed animals stimulated in vitro with the fed antigen, serum-free), the “amount of TGF-β” value turned out to be 6.8 ± 1.7 ng/mL. This molecule also registered a maximal disease severity with EAE [1] of 1.0±0.2. Also, the “DTH response (change in ear thickness)” value in the assay on DTH responses to MBP is given as 0.5±0.3. Besides, the “DTH responses to MBP” value in assay [2] is reported as “Suppressed DTH responses to MBP”. In addition, in the assay with EAE [3], the “adoptive transfer of protection by spleen cells from fed animals” value is on record as “adoptively transferred protection”. In assay [4], the “IL-2R(p55), PCNA” value is recorded as “+/− (<10 cells/section or trace labelling)”; the IL-4 entry was “−”; the PGE result is given as “−”; the TGF-β is 2+. Further, the “down-regulation of EAE induced by guinea pig MBP 71-90” value in the assay on EAE [5] is recorded as “equally effective in down-regulating EAE”. The “suppression of EAE induced with whole guinea pig MBP” value with EAE [6] is “effective in suppressing EAE”.

The record behind these values is patent publication US6645504B1, “Bystander suppression of type I diabetes by oral administration of glucagon” (AutoImmune Inc., priority 1987, dated 2003).
